# Like-named read-outs stand apart in the source and are kept apart here. Where no end group is shown, it is not given here.
# Experiments:
# [1] = molecular target: 3TD of SETDB1, R384A mutant, as used in ITC (UniProt Q15047 190-410, alanine mutation of R384); assay: ITC
# [2] = molecular target: T1, triple Tudor domain (3TD) of SETDB1, wildtype, as used in solution (ITC, NMR, crystals) (UniProt Q15047 190-410); assay: ITC
# [3] = molecular target: 3TD of SETDB1, W358A mutant, as used in ITC and crystals (UniProt Q15047 190-410, W358A); assay: ITC
# [4] = molecular target: 3TD of SETDB1, Y268A mutant, as used in ITC (UniProt Q15047 190-410, Y268A); assay: ITC
# [5] = molecular target: T2, 3TD of SETDB1, F332A mutant, as used in ITC (UniProt Q15047 190-410, F332A); assay: ITC
# [6] = molecular target: T2, 3TD of SETDB1, F332A mutant, as used in …; assay: ITC; remark: listed apart in the source
# [7] = molecular target: T1, triple Tudor domain (3TD) of SETDB1, …; assay: ITC; remark: listed apart in the source
# [8] = molecular target: T1, triple Tudor domain (3TD) of SETDB1, …; assay: NMR
Binder,Kd [1] [µM],Kd [2] [µM],Kd [3] [µM],Kd [4] [µM],Kd [5] [µM],Kd [6] [µM],Kd [7] [µM],Kd [8] [µM]
"KQTARK(Me2)STGGK(Ac)APRKQ [H3K9me2/K14ac peptide in solution (ITC; crystal with W358A), limits not stated]",2.6,9.3,174,8.1,~350,353,,
KQTARK(Me)STGGK(Ac)APRKQ [H3K9me1/K14ac peptide in solution (ITC)],5.1,29.4,,19.2,,,,
KQTARK(Me3)STGGK(Ac)APRKQ [H3K9me3/K14ac peptide in solution (ITC; crystals)],9.2,23.9,55.6,135,,,,
"KQTARKSTGGK(Ac)APRKQ [monomodified H3K14ac peptide in solution (ITC, NMR; crystal)]",,,,,,,> 500,930
